From US20220153832A1 (PIONYR IMMUNOTHERAPEUTICS, published 2022)

Key:
[1] = molecular target: T1, Cynomolgus MARCO, full length, on cells (cynomolgus, UniProt A0A2K5X0Z2 1-519); test: flow cytometry, cells overexpressing cyno MARCO
T1 construct: whole, on cells; also called cyno MARCO; CyMARCO
T1 sequence: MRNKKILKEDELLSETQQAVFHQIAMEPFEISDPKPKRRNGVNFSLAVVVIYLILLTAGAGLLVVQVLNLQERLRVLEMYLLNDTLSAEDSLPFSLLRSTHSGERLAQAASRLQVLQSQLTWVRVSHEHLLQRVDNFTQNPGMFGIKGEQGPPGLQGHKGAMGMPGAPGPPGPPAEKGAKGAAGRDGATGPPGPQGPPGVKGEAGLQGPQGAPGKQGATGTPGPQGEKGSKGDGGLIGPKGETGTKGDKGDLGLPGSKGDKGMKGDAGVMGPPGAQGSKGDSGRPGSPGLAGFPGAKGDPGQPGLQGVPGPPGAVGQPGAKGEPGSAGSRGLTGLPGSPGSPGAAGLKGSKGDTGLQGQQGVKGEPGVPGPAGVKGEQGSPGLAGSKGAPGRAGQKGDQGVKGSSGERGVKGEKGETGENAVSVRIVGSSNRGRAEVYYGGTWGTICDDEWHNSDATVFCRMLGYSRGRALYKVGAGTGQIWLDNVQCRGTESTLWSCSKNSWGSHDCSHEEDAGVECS

[2] = molecular target: T2, Human Macrophage Receptor with Collagenous Structure (MARCO), full length, on cells (human, UniProt Q9UEW3 1-520); test: flow cytometry, cells overexpressing human MARCO
T2 construct: the cell type is named under assay; also called huMARCO; HuMARCO
T2 sequence: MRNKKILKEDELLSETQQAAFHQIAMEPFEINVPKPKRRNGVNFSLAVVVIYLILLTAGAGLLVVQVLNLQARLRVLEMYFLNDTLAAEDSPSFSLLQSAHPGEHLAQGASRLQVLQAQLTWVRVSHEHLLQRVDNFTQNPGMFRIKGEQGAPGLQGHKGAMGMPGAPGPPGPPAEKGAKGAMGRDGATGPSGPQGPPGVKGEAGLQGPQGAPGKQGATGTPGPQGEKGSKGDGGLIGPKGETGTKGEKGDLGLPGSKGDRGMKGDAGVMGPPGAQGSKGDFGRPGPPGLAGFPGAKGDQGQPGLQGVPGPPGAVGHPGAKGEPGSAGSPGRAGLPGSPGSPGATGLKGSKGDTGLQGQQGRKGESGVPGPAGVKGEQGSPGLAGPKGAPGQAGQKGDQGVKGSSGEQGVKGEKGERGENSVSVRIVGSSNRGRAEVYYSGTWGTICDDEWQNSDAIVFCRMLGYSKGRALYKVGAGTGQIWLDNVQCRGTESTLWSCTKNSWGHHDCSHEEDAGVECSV
Protocol: Supernatants were removed and cell pellets were resuspended in Ca²⁺+ and Mg²⁺+ Dulbecco's phosphate-buffered saline (D-PBS) at 1×10⁶ cells/ml. 100,000 cells/well were plated onto U-bottom 96-well plates for staining and all centrifugation steps were performed at 1500 rpm at 4° C. for 5 min and samples were kept protected from light throughout the protocol. Cells were pelleted and resuspended in 100 μl of Zombie NIR viability dye (BioLegend) prepared by diluting Zombie NIR dimethyl sulfoxide (DMSO) stock 1000-fold in D-PBS. Cells were stained by incubation for 10 min at room temperature (RT) in the dark, followed by quenching the staining reaction with the addition of 100 μl of Staining Medium (D-PBS containing 2% FBS and 2 mM ethylenediaminetetraacetic acid (EDTA). Cells were pelleted and resuspended in 100 μl of the different antibodies and hybridomas supernatants needed for screening and corresponding isotype controls in freshly prepared staining medium, such as PI-M014 and mIgG2b isotype. All mAbs were tested at the final top concentration of 100 nM (15 μg/ml) followed by an 8-point three-fold serial dilution, including 0 mg/ml control. Staining was carried out for 1 hour (hr) on ice, followed by 2 washes in Staining Medium. Cells were then pelleted and resuspended in 100 μl of allophycocyanin (APC)-conjugated goat anti-mouse IgG (Fc-specific) secondary antibody, prepared by 500-fold dilution of the antibody stocks in Staining Medium, and incubated for 30 min on ice. […] Flow cytometry data were analyzed using FlowJo software (version 10.6.1) and data were processed and further analyzed in Microsoft Excel and GraphPad Prism software (version 8). Half-maximal effective concentrations (EC₅₀) were calculated based on geometric mean fluorescence intensities (gMFI). In case when the plates were not able to be analyzed on the cytometer, cells were pelleted after the washes and fixed in 100 μl of 2% paraformaldehyde (PFA), prepared by diluting the 16% (w/v) stock (Thermo Fisher) in DPBS, for 15 min at RT. […]

[3] = molecular target: T3, recombinant cynomolgus MARCO protein (cynomolgus, UniProt A0A2K5X0Z2 65-519); test: Biacore (SPR), recombinant cyno MARCO
T3 construct: Construct not described; also called cyno MARCO; cynoMARCO
T3 sequence: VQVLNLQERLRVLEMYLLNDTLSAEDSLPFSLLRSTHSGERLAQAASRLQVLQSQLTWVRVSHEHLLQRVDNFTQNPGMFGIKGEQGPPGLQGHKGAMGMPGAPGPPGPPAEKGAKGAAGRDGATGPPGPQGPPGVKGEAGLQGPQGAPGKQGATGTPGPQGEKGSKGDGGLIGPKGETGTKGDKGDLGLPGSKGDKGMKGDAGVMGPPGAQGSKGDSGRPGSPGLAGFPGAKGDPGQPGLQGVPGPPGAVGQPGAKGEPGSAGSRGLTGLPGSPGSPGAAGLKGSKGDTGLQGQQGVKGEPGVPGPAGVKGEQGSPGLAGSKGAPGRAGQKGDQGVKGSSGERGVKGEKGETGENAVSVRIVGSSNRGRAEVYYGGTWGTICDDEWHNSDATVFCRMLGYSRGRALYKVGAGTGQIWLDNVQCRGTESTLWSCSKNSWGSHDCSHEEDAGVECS

B1: PI-3010-AB (antibody, human IgG1, kappa)
heavy: not shown
light: DIQMTQSPASLSTSLGETVSIECLASEGISNDLAWYQQKSGKSPQLLIYAASRLQDGVPSRFSGSGSGTRYSLKISGMQPEDEADYFCQQSYKYPLTFGSGTKLEIKRTVAAPSVFIFPPSDEQLKSGTASVVCLLNNFYPREAKVQWKVDNALQSGNSQESVTEQDSKDSTYSLSSTLTLSKADYEKHKVYACEVTHQGLSSPVTKSFNRGEC
- EC50 [1]: 0.34 nM
- EC50 [2]: 0.68 nM

B2: PI-3015-AB (antibody, human IgG1, kappa)
heavy: not shown
light: DIQMTQSPSSLSASVGDRVTITCRASEGISNDLAWYQQKPGKAPKLLIYAASRLQSGVPSRFSGSGSGTDYTLTISSMQPEDFATYYCQQSYKYPLTFGQGTKLEIKRTVAAPSVFIFPPSDEQLKSGTASVVCLLNNFYPREAKVQWKVDNALQSGNSQESVTEQDSKDSTYSLSSTLTLSKADYEKHKVYACEVTHQGLSSPVTKSFNRGEC
- Kd [3]: 1.65 nM
